Laboratory results taken from US20220047631A1.

Columns and labels:
[1] = target: Glycopeptide; assay: surface plasmon resonance, Table S3 of Brooks et al. (2010) PNAS drawn on the sheet; per legend paragraph 58 measured for the 237 Fab [C]
[2] = target: Tn-glycosylated murine podoplanin on COSMC-mutant cells (murine) (UniProt Q62011); assay: flow cytometry on Ag104A, Jurkat and SKOV3 variants; binding ratio = MFI primary+secondary / MFI secondary alone
Sequence of Tn-glycosylated murine podoplanin on COSMC-mutant cells (murine) (Q62011 23-172, change not shown): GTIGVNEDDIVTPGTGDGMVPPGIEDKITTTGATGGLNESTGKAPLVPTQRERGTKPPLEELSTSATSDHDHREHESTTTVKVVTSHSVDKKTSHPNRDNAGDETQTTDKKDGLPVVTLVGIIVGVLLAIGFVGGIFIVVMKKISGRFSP

Binder	koff [1] [s⁻¹]	kon [1] [M⁻¹ s⁻¹]	fold of binding ratio over cells that were PDPN- and/or Cosmc+ [2] [fold]
237mAb Fab (Fab, V domains shown) VH: QVQLQQSGGGLVQPGGSMKIFCAASGFTFSDAWMDWVRQSPEKGLEWVAEIRNKANNHETYYAESVKGRFTITRDDSKSRMSLQMNSLRAEDTGIYYCSGGKVRNAYWGQGTTVTVSS VL: DIQLTQSPLSLPVSLGDQASISCRSSQSLVHSNGNTYLHWYLQKPGQSPKLLIYKVSNRFSGVPDRFSGSGSGTDFTLKISSVEAEDLGVYFCSQSTHVPTFGGGTKLEIK	0.013	94000	–
237 monoclonal antibody (antibody, V domains shown) VH: QVQLQQSGGGLVQPGGSMKIFCAASGFTFSDAWMDWVRQSPEKGLEWVAEIRNKANNHETYYAESVKGRFTITRDDSKSRMSLQMNSLRAEDTGIYYCSGGKVRNAYWGQGTTVTVSS VL: DIQLTQSPLSLPVSLGDQASISCRSSQSLVHSNGNTYLHWYLQKPGQSPKLLIYKVSNRFSGVPDRFSGSGSGTDFTLKISSVEAEDLGVYFCSQSTHVPTFGGGTKLEIK	–	–	> 100
